The assay has as its target purified NTRI ectodomain (FLAG-NTRI, Fc removed) (human) (UniProt Q9P121). As to the kind of experiment: AUC.

With “purified NTRI ectodomain (FLAG-NTRI, Fc removed) (from UniProt Q9P121 34-321) (domain or fragment)”, the Kd came out at 110 nM, the percent dimer at 2.0 uM stood at 50%, the percent dimer at 10 uM amounted to 87% and the stoichiometry N was found to be 2.

The record behind these values is publication PMC6609445.
